Biological target: Measles virus matrix protein (MeV-M) fused to a twin StrepII tag (Measles virus) (UniProt Q9W850)
Test: SEC-MALS

Measles virus matrix protein (MeV-M) fused to a twin StrepII tag (from UniProt Q9W850 1-335) (natural protein)
stoichiometry N: 2

Source: doi:10.1101/2021.10.11.463969
